Measurements: PMC5014583 (Structure (London, England : 1993), 2016)
Several values for one entry are separate records, joined by “and”; a condition that tells them apart may be missing. Identical values can stand only once.

Key:
[1] = biological target: T1, Full-length human calmodulin (CaM) (human, UniProt P0DP23 1-149); test: ITC
[2] = biological target: T1, Full-length human calmodulin (CaM); test: NMR titration

Kd [1]: 153 nM and 137 nM | dH [1]: -16.6 kcal/mol | Kd [2]: 36000 nM
Binder: SPANSFHFKEAWKHAIQKAKHMPDPWA [eEF-2KCBD, calmodulin-binding segment of human eEF-2K (residues 74-100)]
